Assay results reported in patent publication US8236762B2, “Peptide-cytotoxic conjugates” (IPSEN Pharma S.A.S., priority 2006, dated 2012).
Read-outs that look alike come from different tables or passages of the source. Numbered stars: 1 amine (or outer) side, 2 acyl side, 3 side chain; on linkers, the order of the positions; unused ones are H or OH. Square brackets hold non-standard residues; d marks the D form. Peptide text beside a SMILES is read from it. * marks the point of attachment. Pipz(1-CH2CO,4-CH2CH2NH) = O=C(CN1CCN(CCN[*:1])CC1)[*:2]; X1 = CC[C@@]1(O*)C(=O)OCc2c1cc1n(c2=O)Cc2cc3ccccc3nc2-1; Suc = O=C(CCC(=O)[*:2])[*:1]; Nle = CCCC[C@H](N)C(=O)O; AEEA = NCCOCCOCC(=O)O; GABA = NCCCC(=O)O; βAla = NCCC(=O)O

Experiments:
[1] = Half-life determination in human plasma (LC-MS); assay type: in vitro ADME; settings: 37° C.
Experimental: (§1) Samples containing approximately 50 μg/ml up to and including approximately 500 μg/ml of test compound according to Formula IA or IB or II was added to 450 μl human or mouse plasma, vortexed briefly and incubated at 37° C. At various time intervals, e.g., 0, 0.5, 1, 2, 4, 6, 8, 24, 36 and 48 hours, 50 μl of the compound-plasma mixture was added to 150 μl acetonitrile in a microcentrifuge tube. The mixture was vortexed, centrifuged for 5 minutes at 10K RPM, and 135 μl of supernatant was transferred to an injection vial. The recovered supernatant was analyzed by using a liquid chromatography-mass spectrophotometer system (LC-MS) consisting of a Finnigan Deca XP® mass spectrometer with an ESI probe at the positive ion mode. HPLC separation was carried out on a Luna 3μ C8 (2)® 3×50 mm column with a gradient decreasing from 100% A to 80% B for 10 minutes at a flow rate of 0.25 ml/min. Buffer A was 0.1% acetic acid in water and buffer B was 0.1% acetic acid acetonitrile.

hSSTR-4 = target: T1, hSSTR-4 (Homo sapiens, UniProt P31391); test: Somatostatin receptor radioligand binding, hSSTR-4 (CHO-K1 membranes); settings: read-out: Ki hSSTR4 ± (SEM)
T1 construct: expressed in transfected cells; host or cells: CHO-K1
Experimental: For the hSSTR-1, hSSTR-3, and hSSTR-4 assays, aliquots of the membrane preparations were incubated for 90 minutes at 25° C. with 0.05 nM [^125I-Tyr11]SRIF-14 in 50 mM HEPES (pH 7.4) buffer containing 0.2% BSA and 5 mM MgCl2. The final assay volume was 0.3 ml. For the hSSTR-2 and hSSTR-5 assays, [^125I]-[4-(2-hydroxyethyl)]-1-piperazinylacetyl-D-Phe-c(Cys-Tyr-D-Trp-Lys-Abu-Cys)-Thr-NH2 (0.05 nM) and [^125I]-D-Phe-c(Cys-Tyr-D-Trp-Lys-Val-Cys)-Thr-NH2 were employed as the radioligands, respectively.

hSSTR-1 = target: T2, hSSTR-1 (Homo sapiens, UniProt P30872); test: Somatostatin receptor radioligand binding, hSSTR-1 (CHO-K1 membranes); settings: read-out: Ki hSSTR1 ± (SEM)
T2 construct: expressed in transfected cells; host or cells: CHO-K1
Experimental: Membranes for in vitro receptor binding assays were obtained by homogenizing (Polytron setting 6, 15 sec) CHO-K1 cells expressing human somatostatin receptor subtypes hSSTR-1, hSSTR-2, hSSTR-3, hSSTR-4 or hSSTR-5 in ice-cold 50 mM Tris-HCl. The homogenized cells were centrifuged twice at 39,000 g for 10 minutes with an intermediate resuspension in fresh buffer. The final pellets were resuspended in 10 mM Tris-HCl to prepare the cell membrane homogenate for use in the binding assay.
The final assay volume was 0.3 ml.
The cell membrane homogenate was incubated with the radioligands for 90 minutes at 25° C. The incubations were terminated by rapid filtration through GF/C filters pre-soaked in 0.3% polyethylenimine using a Brandel® filtration manifold (Gaithersberg, Md., U.S.A.). Each tube and filter was washed three times with 5-ml aliquots of ice-cold buffer. Specific binding was defined as the total radioligand bound minus that bound in the presence of 1000 nM SRIF-14 (for hSSTR-1, hSSTR-3, hSSTR-4 or hSSTR-5), or 1000 nM DPhe-c(Cys-Tyr-D-Trp-Lys-Abu-Cys)-Thr-NH2 for hSSTR-2.

[2] = Half-life determination in mouse plasma (LC-MS); assay type: in vitro ADME; settings: 37° C.
Experimental: as §1

[3] = [125I-Tyr11]SRIF-14, value of 1000 indicates at least 1000

T1 sequence (P31391 whole entry): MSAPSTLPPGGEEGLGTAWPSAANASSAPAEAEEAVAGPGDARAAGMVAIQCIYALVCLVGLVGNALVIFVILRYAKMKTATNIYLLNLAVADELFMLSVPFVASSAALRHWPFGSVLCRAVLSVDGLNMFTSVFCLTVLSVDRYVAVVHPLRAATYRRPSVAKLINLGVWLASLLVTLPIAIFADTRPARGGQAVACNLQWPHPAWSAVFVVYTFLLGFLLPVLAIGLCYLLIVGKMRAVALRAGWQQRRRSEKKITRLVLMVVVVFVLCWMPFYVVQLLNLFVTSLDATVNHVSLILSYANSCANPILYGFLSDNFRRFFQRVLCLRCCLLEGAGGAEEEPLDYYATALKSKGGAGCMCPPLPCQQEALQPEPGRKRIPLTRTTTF
T2 sequence (P30872 whole entry): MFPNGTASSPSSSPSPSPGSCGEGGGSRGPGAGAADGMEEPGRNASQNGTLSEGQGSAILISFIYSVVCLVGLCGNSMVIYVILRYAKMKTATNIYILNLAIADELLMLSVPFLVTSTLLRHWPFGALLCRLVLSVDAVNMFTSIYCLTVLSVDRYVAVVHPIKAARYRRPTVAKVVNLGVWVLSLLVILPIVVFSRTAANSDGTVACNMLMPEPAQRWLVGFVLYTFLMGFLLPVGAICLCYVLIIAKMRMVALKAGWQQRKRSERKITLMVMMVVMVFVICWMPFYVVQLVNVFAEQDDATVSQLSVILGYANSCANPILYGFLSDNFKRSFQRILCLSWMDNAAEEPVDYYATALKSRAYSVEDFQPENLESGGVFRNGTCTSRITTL

Molecule | half-life [1] [h] | Ki (hSSTR-4) [µM] | Ki (hSSTR-1) [µM] | half-life [2] [h] | Ki (hSSTR-4; [3]) [µM] | Ki (hSSTR-1; [3]) [µM]
CC[C@@H]1NC(=O)[C@H](CCCCN)NC(=O)[C@@H](Cc2c[nH]c3ccccc23)NC(=O)[C@H](Cc2ccc(O)cc2)NC(=O)[C@@H](NC(=O)[C@@H](Cc2ccccc2)NC(=O)CN2CCN(CCNC(=O)COCCOCCNC(=O)COCCOCCNC(=O)COCCOCCNC(=O)COCCOCCNC(=O)CCC(=O)N[C@@H](CC)C(=O)O[C@]3(CC)C(=O)OCc4c3cc3n(c4=O)Cc4cc5ccccc5nc4-3)CC2)CSSC[C@@H](C(=O)N[C@H](C(N)=O)[C@@H](C)O)NC1=O [Example 12, Camptothecin-rvAbu-Suc-(Doc)4-Aepa-D-Phe-c(Cys-Tyr-D-Trp-Lys-Abu-Cys)-Thr-NH2] | 0.7 | ≥ 1 | ≥ 1 | 6 | – | –
CC[C@@H]1NC(=O)[C@H](CCCCN)NC(=O)[C@@H](Cc2c[nH]c3ccccc23)NC(=O)[C@H](Cc2ccc(O)cc2)NC(=O)[C@@H](NC(=O)[C@@H](Cc2ccccc2)NC(=O)CN2CCN(CCNC(=O)COCCOCCNC(=O)COCCOCCNC(=O)COCCOCCNC(=O)COCCOCCNC(=O)CCC(=O)N[C@@H](CNC(=O)OCc3ccccc3)C(=O)O[C@]3(CC)C(=O)OCc4c3cc3n(c4=O)Cc4cc5ccccc5nc4-3)CC2)CSSC[C@@H](C(=O)N[C@H](C(N)=O)[C@@H](C)O)NC1=O [Example 8, Camptothecin-rvDap(Z)-Suc-(Doc)4-Aepa-D-Phe-c(Cys-Tyr-D-Trp-Lys-Abu-Cys)-Thr-NH2] | 0.7 | ≥ 1 | ≥ 1 | 2.2 | – | –
CCc1c2c(nc3ccc(O)cc13)-c1cc3c(c(=O)n1C2)COC(=O)[C@@]3(CC)OC(=O)CNC(=O)CCC(=O)NCCOCCOCC(=O)NCCOCCOCC(=O)NCCOCCOCC(=O)NCCOCCOCC(=O)NCCN1CCN(CC(=O)N[C@H](Cc2ccccc2)C(=O)N[C@H]2CSSC[C@@H](C(=O)N[C@H](C(N)=O)[C@@H](C)O)NC(=O)[C@H](CC)NC(=O)[C@H](CCCCN)NC(=O)[C@@H](Cc3c[nH]c4ccccc34)NC(=O)[C@H](Cc3ccc(O)cc3)NC2=O)CC1 [Example 19, SN38-rvGly-Suc-(Doc)4-Aepa-D-Phe-c(Cys-Tyr-D-Trp-Lys-Abu-Cys)-Thr-NH2] | 6.9 | – | ≥ 1 | 2.6 | – | –
CCCC[C@H](NC(=O)[C@H](CC(C)C)NC(=O)[C@H](Cc1c[nH]cn1)NC(=O)CCNC(=O)[C@@H](NC(=O)[C@H](C)NC(=O)[C@H](Cc1c[nH]c2ccccc12)NC(=O)[C@H](CCC(N)=O)NC(=O)[C@@H](Cc1ccc(O)cc1)NC(=O)[C@@H](CO)NC(=O)CCCNC(=O)CN1CCN(CCNC(=O)COCCOCCNC(=O)COCCOCCNC(=O)COCCOCCNC(=O)COCCOCCNC(=O)CCC(=O)NCC(=O)O[C@]2(CC)C(=O)OCc3c2cc2n(c3=O)Cc3cc4ccccc4nc3-2)CC1)C(C)C)C(N)=O [Example 28, Camptothecin-rvGly-Suc-(Doc)4-Aepa-Gaba-D-Ser-D-Tyr-Gln-Trp-Ala-Val-β-Ala-His-Leu-Nle-NH2] ({X1-Gly-Suc-AEEA-AEEA-AEEA-AEEA}-[Pipz(1-CH2CO,4-CH2CH2NH)][GABA][dS][dY]QWAV[βAla]HL[Nle]-NH2) | 1.9 | – | – | 2.9 | – | –
CC[C@@H]1NC(=O)[C@H](CCCCN)NC(=O)[C@@H](Cc2c[nH]c3ccccc23)NC(=O)[C@H](Cc2ccc(O)cc2)NC(=O)[C@@H](NC(=O)[C@@H](Cc2ccccc2)NC(=O)CN2CCN(CCNC(=O)COCCOCCNC(=O)COCCOCCNC(=O)COCCOCCNC(=O)COCCOCCNC(=O)CCC(=O)N[C@H](CNC(=O)OCc3ccccc3)C(=O)O[C@]3(CC)C(=O)OCc4c3cc3n(c4=O)Cc4cc5ccccc5nc4-3)CC2)CSSC[C@@H](C(=O)N[C@H](C(N)=O)[C@@H](C)O)NC1=O [Example 9, Camptothecin-rvD-Dap(Z)-Suc-(Doc)4-Aepa-D-Phe-c(Cys-Tyr-D-Trp-Lys-Abu-Cys)-Thr-NH2] | 0.7 | ≥ 1 | ≥ 1 | 1.7 | – | –
CC[C@@H]1NC(=O)[C@H](CCCCN)NC(=O)[C@@H](Cc2c[nH]c3ccccc23)NC(=O)[C@H](Cc2ccc(O)cc2)NC(=O)[C@@H](NC(=O)[C@@H](Cc2ccccc2)NC(=O)CN2CCN(CCNC(=O)COCCOCCNC(=O)COCCOCCNC(=O)COCCOCCNC(=O)COCCOCCNC(=O)CCCC(=O)O[C@]3(CC)C(=O)OCc4c3cc3n(c4=O)Cc4cc5ccccc5nc4-3)CC2)CSSC[C@@H](C(=O)N[C@H](C(N)=O)[C@@H](C)O)NC1=O [Example 16, Camptothecin-Glut-(Doc)4-Aepa-D-Phe-c(Cys-Tyr-D-Trp-Lys-Abu-Cys)-Thr-NH2] | 3.6 | ≥ 1 | ≥ 1 | 4.2 | – | –
CC[C@@H]1NC(=O)[C@H](CCCCN)NC(=O)[C@@H](Cc2c[nH]c3ccccc23)NC(=O)[C@H](Cc2ccc(O)cc2)NC(=O)[C@@H](NC(=O)[C@@H](Cc2ccccc2)NC(=O)CN2CCN(CCNC(=O)COCCOCCNC(=O)COCCOCCNC(=O)COCCOCCNC(=O)COCCOCCNC(=O)CCC(=O)N[C@H](CCC(=O)O)C(=O)O[C@]3(CC)C(=O)OCc4c3cc3n(c4=O)Cc4cc5ccccc5nc4-3)CC2)CSSC[C@@H](C(=O)N[C@H](C(N)=O)[C@@H](C)O)NC1=O [Example 31, Camptothecin-rvDGlu-Suc-(Doc)4-Aepa-DPhe-c(Cys-Tyr-DTrp-Lys-Abu-Cys)-Thr-NH2] | – | – | ≥ 1 | – | – | –
CC[C@@H]1NC(=O)[C@H](CCCCN)NC(=O)[C@@H](Cc2c[nH]c3ccccc23)NC(=O)[C@H](Cc2ccc(O)cc2)NC(=O)[C@@H](NC(=O)[C@@H](Cc2ccccc2)NC(=O)CN2CCN(CCNC(=O)CCOCCOCCOCCOCCOCCOCCOCCOCCOCCOCCOCCOCCNC(=O)CCC(=O)N[C@H](CC(=O)O)C(=O)O[C@]3(CC)C(=O)OCc4c3cc3n(c4=O)Cc4cc5ccccc5nc4-3)CC2)CSSC[C@@H](C(=O)N[C@H](C(N)=O)[C@@H](C)O)NC1=O [Example 30, Camptothecin-rvDAsp-Suc-Peg11-Aepa-DPhe-c(Cys-Tyr-DTrp-Lys-Abu-Cys)-Thr-NH2] | – | – | ≥ 1 | – | – | –
CCCC[C@H](NC(=O)[C@H](CC(C)C)NC(=O)[C@H](Cc1c[nH]cn1)NC(=O)CCNC(=O)[C@@H](NC(=O)[C@H](C)NC(=O)[C@H](Cc1c[nH]c2ccccc12)NC(=O)[C@H](CCC(N)=O)NC(=O)[C@@H](Cc1ccc(O)cc1)NC(=O)[C@@H](C)NC(=O)[C@H](CCCNC(=N)N)NC(=O)COCCOCCNC(=O)COCCOCCNC(=O)COCCOCCNC(=O)COCCOCCNC(=O)CCC(=O)NCC(=O)O[C@]1(CC)C(=O)OCc2c1cc1n(c2=O)Cc2cc3ccccc3nc2-1)C(C)C)C(N)=O [Example 26, Camptothecin-rvGly-Suc-(Doc)4-Arg-D-Ala-D-Tyr-Gln-Trp-Ala-Val-β-Ala-His-Leu-Nle-NH2] ({X1-Gly-Suc-AEEA-AEEA-AEEA-AEEA}-R[dA][dY]QWAV[βAla]HL[Nle]-NH2) | 1.4 | – | – | 1.8 | – | –
Camptothecin-rvD-Glu-Suc-(Doc)4-Aepa-D-Phe-c(Cys-Tyr-D-Trp-Lys-Abu-Cys)-Thr-NH2 and Camptothecin-rvGlu-Suc-(Doc)4-Aepa-D-Phe-c(Cys-Tyr-D-Trp-Lys-Abu-Cys)-Thr-NH2 [Example 6] | – | – | – | – | ≥ 1 | ≥ 1
CCCC[C@H](NC(=O)[C@H](CC(C)C)NC(=O)[C@H](Cc1c[nH]cn1)NC(=O)CCNC(=O)[C@@H](NC(=O)[C@H](C)NC(=O)[C@H](Cc1c[nH]c2ccccc12)NC(=O)[C@H](CCC(N)=O)NC(=O)[C@@H](Cc1ccc(O)cc1)NC(=O)[C@@H](CO)NC(=O)[C@H](CCCCN)NC(=O)COCCOCCNC(=O)COCCOCCNC(=O)COCCOCCNC(=O)COCCOCCNC(=O)CCC(=O)NCC(=O)O[C@]1(CC)C(=O)OCc2c1cc1n(c2=O)Cc2cc3ccccc3nc2-1)C(C)C)C(N)=O [Example 25, Camptothecin-rvGly-Suc-(Doc)4-Lys-D-Ser-D-Tyr-Gln-Trp-Ala-Val-β-Ala-His-Leu-Nle-NH2] ({X1-Gly-Suc-AEEA-AEEA-AEEA-AEEA}-K[dS][dY]QWAV[βAla]HL[Nle]-NH2) | 2.4 | – | – | 2.6 | – | –
CC[C@@H]1NC(=O)[C@H](CCCCN)NC(=O)[C@@H](Cc2c[nH]c3ccccc23)NC(=O)[C@H](Cc2ccc(O)cc2)NC(=O)[C@@H](NC(=O)[C@@H](Cc2ccccc2)NC(=O)CN2CCN(CCNC(=O)COCCOCCOCCNC(=O)COCCOCCOCCNC(=O)COCCOCCOCCNC(=O)CCC(=O)N[C@H](CC(=O)O)C(=O)O[C@]3(CC)C(=O)OCc4c3cc3n(c4=O)Cc4cc5ccccc5nc4-3)CC2)CSSC[C@@H](C(=O)N[C@H](C(N)=O)[C@@H](C)O)NC1=O [Example 29, Camptothecin-rvDAsp-Suc-(Peg3)3-Aepa-DPhe-c(Cys-Tyr-DTrp-Lys-Abu-Cys)-Thr-NH2] | 9.3 | – | ≥ 1 | 44.1 | – | –
